± gives the uncertainty stated by the source.
assay: protein stability index of a GFP-peptide fusion (yeast GPS) (PSI 1-4); higher = more stable; sorted into four equal gates, so the index is relative within each strain; conditions: doa10∆
Summary of the method: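 For each peptide, the protein stability index sums the read frequency in every gate after multiplying it by the gate number. Read frequencies came from plasmids that were PCR-amplified from each gate and Illumina-sequenced, with reads assigned to strains by barcodes. The gates were four equal bins of GFP/Cherry fluorescence ratio applied to mid-log yeast in leucine-free medium carrying a pooled library of tiled 17-residue yeast protein peptides fused downstream of GFP on a Cherry-expressing plasmid.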

In order of falling protein stability index:
1. SFVKETKLHSGDYGEEE [SRB8]  3.61 ± 0.23
2. SFGSKPTGKEEGDGAKA [YJL041W/NSP1]  3.59 ± 0.12
3. SAGAVFKSSVEMGKTDK [YOR098C/NUP1]  3.5 ± 0.095
4. SEEEEDEEENGSSDEDL [SSN2]  3.48 ± 0.26
5. RVKAMEVDEKPTETYSD [RPT5]  3.46 ± 0.1
6. SAGFETDLRLSTNGLGM [SNU114]  3.43 ± 0.1
7. SDSSSEDEVKVEGPKFT [YLR335W/NUP2]  3.4 ± 0.12
8. SIKSKVVDHHVENELLQ [RRP42]  3.38 ± 0.13
9. RVASDTVHEMEEELKKL [SMC4]  3.37 ± 0.21
10. SGSQNISEFDSFTDILK [RPN12]  3.37 ± 0.17
11. RWEMEAFGEFSLEGCVE [FAS2]  3.28 ± 0.17
12. SIWGNGYSGYGNGITNT [SNF5]  3.26 ± 0.1
13. RYNAKAIGSGSEGAQAE [PUP2]  3.24 ± 0.093
14. SGNNNGGFTNLTSQAPQ [YDL088C/ASM4]  3.24 ± 0.071
15. SASPHLAPNMQLNGNET [SNF2]  3.23 ± 0.041
16. SEEIDSLNEDVEEIKLQ [SMC2]  3.19 ± 0.12
17. RYENNDDDERVEYNLFT [BRN1]  3.17 ± 0.1
18. RVQVGDIVTVGQCRPIS [RPS11A]  3.14 ± 0.16
19. SAAAAGNRNSSSVFLPS [BRR2]  3.13 ± 0.062
20. SELAVATTSVMMVNNQT [SRB6]  3.12 ± 0.2
21. SFGKIYVTKPMVNESDG [RPB2]  3.12 ± 0.19
22. SIDPPGCVDIDDALHAK [DIS3]  3.12 ± 0.085
23. RSVDRAGRKFKSRRCDD [POP4]  3.1 ± 0.079
24. RVGVVSILEAGDSDILT [RPL30]  3.1 ± 0.057
25. SEISSLKGKINNEMKSL [SMC1]  3.09 ± 0.28
26. SFSFGAPESMKSTASTA [YOR098C/NUP1]  3.07 ± 0.069
27. SECIVSIKSKVVDHHVE [RRP42]  3.04 ± 0.066
28. SEDSAVFKATSSTDEES [FAS1]  3.03 ± 0.1
29. SGSLFGSNNAQTSRGLF [YGL172W/NUP49]  3.03 ± 0.073
30. SKGFVFNSVQKKSRSNL [YAR002W/NUP60]  3.03 ± 0.2
31. RYSMSEQFPFYLHDNAS [IRR1]  3.02 ± 0.09
32. SFLSGVKSLLSEEKIRD [SIR4]  3.01 ± 0.088
33. SGNNYNDINISSIENNI [MED2]  3.01 ± 0.039
34. SKISFIDEDKLYPSFKP [SSN2]  2.96 ± 0.14
35. SAHQSPIMQTQMPLNSN [SNF2]  2.94 ± 0.11
36. SAIRKCVRVQLIKNGKK [RPS23A]  2.91 ± 0.081
37. SDDYDNEGAASSNPQSA [SMC1]  2.91 ± 0.16
38. RTNNVPMIKAEETPSKT [NUT1]  2.9 ± 0.1
39. SGSAGANPAGASQPEPT [YJL041W/NSP1]  2.9 ± 0.18
40. SGKETASAPLCSPKLPV [DLS1]  2.89 ± 0.049
41. SEPIKEIIDNWEKYEQS [FAS1]  2.88 ± 0.097
42. SHDASRSLASFEQTAFS [SIR4]  2.86 ± 0.065
43. SEHFDVNDNPDIEAGDD [DIS3]  2.81 ± 0.058
44. SARSSVHESLVTQSNIL [SRB8]  2.77 ± 0.078
45. SGTPITQTESKKEENET [SNF2]  2.77 ± 0.052
46. SENHTESDAPPKSTAPI [YOR098C/NUP1]  2.75 ± 0.058
47. RSMSGQPPTNVQPTIGQ [SNF5]  2.74 ± 0.065
48. SDNNSRIMSRNFYLKRF [SWI1]  2.73 ± 0.066
49. SFEETVEILFEAGASAE [RPO21]  2.7 ± 0.11
50. RVHRLLRRGNYAQRIGS [HTA1]  2.65 ± 0.23
51. SGNNSKKRKNKSSGSSM [ROX3]  2.65 ± 0.14
52. SIGEPATQMTLNTFHFA [RPO21]  2.63 ± 0.091
53. SESQLNSTLKKVESQET [YCS4]  2.62 ± 0.18
54. SALWSSRKGIAFGLGAI [ECM29]  2.59 ± 0.13
55. RTPDSISVNSSSFSLTF [POP1]  2.56 ± 0.045
56. SARNYDKFKLNENDLKT [SMC1]  2.55 ± 0.093
57. RVPIRSEYKVAFPHLYN [PRP8]  2.54 ± 0.069
58. RSDREYPLLIRMSYGSH [SRP14]  2.51 ± 0.077
59. SFKYLSNNDEDDKDCTI [RGR1]  2.51 ± 0.05
60. RYWVQKERSDGKRHIFD [CDC53]  2.49 ± 0.2
61. SELFDEWFEQNNSEQDQ [ISW2]  2.49 ± 0.067
62. SASVRALIENWAADSVS [FAS1]  2.46 ± 0.078
63. RVNGSEFVHKYLGEGPR [RPT3]  2.45 ± 0.057
64. SIREDILECDLLICIGT [SIR2]  2.45 ± 0.058
65. SETFLQFYVKRWKRFTI [CDC53]  2.39 ± 0.1
66. RSVRIPWYNNPVSCIIQ [PRP8]  2.33 ± 0.1
67. SFLFDVLKTLEYKLATY [NUT1]  2.33 ± 0.062
68. RVVRPKSLDAETEAEED [RPO21]  2.25 ± 0.19
69. RSPPRPPSLKIIDGPKA [PRP28]  2.23 ± 0.07
70. RRVYNRVLETTLVEFET [BRN1]  2.21 ± 0.068
71. SAARGLSLVYEIGGSDL [ECM29]  2.18 ± 0.058
72. SAVKPRPLKLERGFACI [FAS1]  2.16 ± 0.092
73. SFNMAQIPQQLYQSLTP [SNF5]  2.16 ± 0.067
74. RYISTLTLYLFQDYLTQ [IRR1]  2.14 ± 0.2
75. SEAKRTKFSNPAIPPVI [BRR2]  2.13 ± 0.06
76. SIKDTQNVGQGKLQRKE [BRN1]  1.96 ± 0.1
77. RVVYLKHLEDNTLLVTG [RPL6B]  1.89 ± 0.29
78. SETDKRQFLHELRRPGV [RPO31]  1.89 ± 0.056
79. SIDCLLILILVISFGQP [SWI1]  1.85 ± 0.043
80. SDIPVSENVFEGLTYKY [SSN3]  1.82 ± 0.078
81. SIREQVHMYHKSLALLG [SNF5]  1.81 ± 0.041
82. SIQMEFMLRKQDPKTLV [SSN2]  1.73 ± 0.066
83. SDVLFEFTKINTPLVGA [YJL039C/NUP192]  1.66 ± 0.042
84. SASLHTRSLKYGKLRNG [RRP4]  1.58 ± 0.075
85. SFLFSAIPLQQVLSQSA [SWI1]  1.58 ± 0.054
86. SKFYNMKQPYVFVKKHH [SSN2]  1.58 ± 0.11
87. SDFTFPEYYSTARVMGG [DIS3]  1.57 ± 0.073
88. RVHANLQCISQINQGVP [SNF11]  1.49 ± 0.043
89. SFIFQYYGLVIDLLLLG [PRP8]  1.48 ± 0.12
90. SGQFYFRNPTPLLSNYA [RGR1]  1.36 ± 0.059
91. SDVLRFLQRVRVWEYRQ [RPL15A]  1.34 ± 0.083
92. SGDSGVYTLACRSCPYE [RPC11]  1.28 ± 0.13
93. RYLVGGNKIQKVLLDSK [RPS7A]  1.24 ± 0.084
94. SDDIISQVDPITLFVLV [FAS2]  1.19 ± 0.045
95. RVAASFSQEALQYVVER [FAS1]  1.06 ± 0.091

same assay, conditions: pdr5∆

In order of rising protein stability index:
1. RSDREYPLLIRMSYGSH [SRP14]  2.3 ± 0.077
2. RRVYNRVLETTLVEFET [BRN1]  2.86 ± 0.098

From the supplement of paper PMC9732359
